Data published in patent KR20240007815A (dated 2024).

Tests used:
[1] = molecular target: 인간 BDCA-2 (Blood dendritic cell antigen 2, CLEC4C) (human) (UniProt Q8WTT0); assay: flow cytometry, double staining of human PBMC with anti-CD123 and anti-BDCA-2
[2] = molecular target: 인간 BDCA-2 (Blood dendritic cell antigen 2, CLEC4C) (human) (UniProt Q8WTT0); assay: flow cytometry, double staining of human PBMC with anti-CD123 and 201A
[3] = molecular target: T1, 인간 BDCA-2 (Blood dendritic cell antigen 2, CLEC4C) (human, UniProt Q8WTT0 1-213); assay: flow cytometry on 293 cells expressing human BDCA-2, anti-human IgG-APC secondary
T1 construct: whole, on cells; also called human BDCA-2
T1 sequence (looked up): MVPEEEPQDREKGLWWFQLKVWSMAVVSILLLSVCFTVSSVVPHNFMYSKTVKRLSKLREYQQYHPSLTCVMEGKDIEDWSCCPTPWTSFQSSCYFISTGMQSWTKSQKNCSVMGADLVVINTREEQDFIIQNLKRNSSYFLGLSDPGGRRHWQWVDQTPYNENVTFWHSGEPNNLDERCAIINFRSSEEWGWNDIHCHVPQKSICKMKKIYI

## anti-BDCA-2 (AC144, Miltenyi) (antibody)
[1]
  % CD123+ BDCA-2+ 세포 (donor-1 PBMC): 0.51%
  % CD123+ BDCA-2+ 세포 (donor-2 PBMC): 0.15%

B1: 인간 BDCA-2에 결합하는 마우스 단일클론 항체 201A (antibody, mouse IgG2a, kappa, V domains shown)
VH: DVKLVESGGGLVKPGGSLNLSCAASGFTFSSYTMSWVRQNPEKRLEWVATISSGGSYTYYPDSVKGRFTISRDNAKNTLYLQMSSLKSEDTAMYYCTRDRGDYDYDEGYYFDYWGQGTTLTVSS
VL: NIVLTQSPASLAVSLGQRATISCRASASVDSYGNSFMHWYQQKPGQPPKLLIYLASNLESGVPARFSGSGSRTDFTLTIDPVEADDAATYYCQQNNEDPRTFGGGTKLEIKR
[2]
  % CD123+ BDCA-2+ 세포 (donor-1 PBMC): 0.65%
  % CD123+ BDCA-2+ 세포 (donor-2 PBMC): 0.16%

B2: 201A 인간화 항체 201H (antibody, human IgG1, kappa, V domains shown)
VH: EVQLVESGGGLVKPGGSLRLSCAASGFTFSSYTMSWVRQAPGKGLEWVATISSGGSYTYYPDSVKGRFTISRDNAKNSLYLQMNSLRAEDTAVYYCTRDRGDYDYDEGYYFDYWGQGTLVTVSS
VL: DIVLTQSPASLAVSPGQRATITCRASASVDSYGNSFMHWYQQKPGQPPKLLIYLASNLESGVPARFSGSGSRTDFTLTINPVEANDTANYYCQQNNEDPRTFGGGTKVEIKR
notes: Humanised antibody made in Expi293 cells, purified on protein G; detected with anti-human IgG Fc
[3]
  binding result: binds

B3: 201A 키메라 항체 201C (antibody, human IgG1, kappa, V domains shown)
VH: DVKLVESGGGLVKPGGSLNLSCAASGFTFSSYTMSWVRQNPEKRLEWVATISSGGSYTYYPDSVKGRFTISRDNAKNTLYLQMSSLKSEDTAMYYCTRDRGDYDYDEGYYFDYWGQGTTLTVSS
VL: NIVLTQSPASLAVSLGQRATISCRASASVDSYGNSFMHWYQQKPGQPPKLLIYLASNLESGVPARFSGSGSRTDFTLTIDPVEADDAATYYCQQNNEDPRTFGGGTKLEIKR
notes: Chimeric antibody made in Expi293 cells, purified on protein G; detected with anti-human IgG Fc
[3]
  binding result: binds
